Consider seven molecules from patent US20250134988A1 (WISTAR INSTITUTE OF ANATOMY AND BIOLOGY, published 2025).

The target of assay [1] is T1, CoV2_5P_NonSFP (SARS-CoV-2, UniProt P0DTC2 14-1208).
T1 construct: also called scrambled fusion peptide spike
Description: ELISA, AUC. (In an ELISA, binding on a coated surface is turned into a signal by an enzyme label.)

Assay [2] has as its target T2, CoV2_5P_229EFP (SARS-CoV-2 spike with 229E fusion …, UniProt P0DTC2 14-1208). Description: ELISA, AUC.
The target in assay [3] is T3, CoV2_5P_OC43FP (SARS-CoV-2 spike with OC43 fusion …, UniProt P0DTC2 14-1208). Description: ELISA, AUC.
Assay [4] addresses T4, CoV2_5P_MERSFP (SARS-CoV-2 spike with MERS fusion …, UniProt P0DTC2 14-1208). Description: ELISA, AUC.
The target of assay [5] is T5, CoV2_5P_NL63FP (SARS-CoV-2 spike with NL63 fusion …, UniProt P0DTC2 14-1208). Description: ELISA, AUC.
In assay [6] the target is T6, CoV2_5P prefusion-stabilized spike protein (SARS-CoV-2, UniProt P0DTC2 14-1208).
T6 construct: also called 5P trimer; wildtype 5P
Description: ELISA.

The target of assay [7] is CoV2_5P_HKU1FP (SARS-CoV-2 spike with HKU1 fusion …, UniProt P0DTC2 14-1208). Description: ELISA AUC on 5P spikes with varying fusion peptides.
For assay [8], the target named is T7, off-target V5 peptide.
T7 construct: also called V5 tag
T7 peptide: GKPIPNPLLGLDST
Description: ELISA on fusion peptides.

The target of assay [9] is T6, CoV2_5P prefusion-stabilized spike …. Description: ELISA, AUC.
Assay [10] addresses T1, CoV2_5P_NonSFP. Description: ELISA, AUC. This is another data set of the same source.
Assay [11] deals with T3, CoV2_5P_OC43FP. Description: ELISA, AUC. This is another data set of the same source.
Assay [12] deals with T6, CoV2_5P prefusion-stabilized spike …. Description: ELISA, AUC. The source holds these as a separate data set.
In assay [13] the target is T5, CoV2_5P_NL63FP. Description: ELISA, AUC. This is another data set of the same source.
Assay [14] deals with T2, CoV2_5P_229EFP. Description: ELISA AUC on 5P spikes with varying fusion peptides.
Assay [15] addresses T4, CoV2_5P_MERSFP. Described as above.
Assay [16] concerns the target T2, CoV2_5P_229EFP. Description: ELISA, AUC. The source holds these as a separate data set.
The target of assay [17] is T4, CoV2_5P_MERSFP. Description: ELISA, AUC. This is another data set of the same source.

Read-outs that look alike come from different tables or passages of the source.

B1: C2691 (antibody, V domains shown)
VH: QVQLQQSGPELVRPGESVKISCKGSGYTFTDYAMHWVKQSHAKSLEWIGIISFYYDNTKYNQNFKGKATMTVDKSSSTAYMELARLTSEDSAIYFCASQGIHYYGSFAYWGQGTLVTVSA
VL: DIVMTQSQKFMSTSVGDRVSVSCKASQNVGTNLGWYQQKPGQSPKALIYSASYRYSGVPDRFTGSGSGTDFTLTISNVQSEDLAEYFCQQYNSSPLTFGAGTKLELK
notes: also called lineage HV1-67/KV6-15 antibody C2691
On to B1, for which the binding result in [1] was “no binding”; in assay [2], “binds”; in [3], “binds”; in assay [4] it was “binds”; in assay [5] it was “binds”; in assay [6], “binds”. The binding result in [7] is “binds”; in [8], “no binding (tested: dilution 0.05 (no unit))”.

B2: C2891 (antibody, V domains shown)
VH: QVQLQQSGPALVRPGESVKISCKGSGYTFTDYAMHWVKQSRAKSLEWIGIFSFYYDNTNYTQKFKGKATMTVDKSSSTAYMELARLTSEDSAIYYCASQGIHYYGSFAYWGQGTLVTVSA
VL: DIVMTQSQKFMSTSVGDRVSVTCKASQNVATNLGWYQQKPGQSPKTLIYSASYRYSGVPDRFTGSGSGTDFTLTISNVQSEDLAEYFCHQYNGYPLTFGAGTKLELK
Turning to B2, the binding result in assay [1], in [2], in assay [3], in [4], in assay [9] and in assay [5] was “no binding” throughout.

B3: C2866 (antibody, V domains shown)
VH: QVQLQQSGPELVRPGESVKISCKGSGYTFTDYAMHWVKQSHAKSLEWIGIFSFYYDNTKYNQNFKGKATMTVDKSSSTAYMELARLTSEDSAIYFCASQGIHYYGSFAYWGQGTLVTVSA
VL: DIVMTQSQKFMSTSVGDRVSVTCKASQNVGTNVGWYQQKPGQSPQALIYSASYRYSGVPDRFTGSGSGTDFTLTISNVQSEDLAEYFCQQYNSYPLTFGAGTKLELK
notes: Lineage HV1-67/KV6-15
In the case of B3, in assay [1], the binding result is “no binding”.

B4: C2503 (antibody, V domains shown)
VH: QVQLQQSGPELVRPGESVKISCKGSGYTFTDYAMHWVKQSHSKSLEWIGIISFYYDNTKYNQNFKGKATMTVDKSSSTAYMELARLTSEDSAIYFCASQGIHYYGSFAYWGQGTLVTVSA
VL: DIVMTQSQKFMSTSVGDRVSVTCKASQNVGTNVGWYQQKPGQSHKALIYSASYRYSGVPDRFTGSGSGTDFTLTISNVQSEDLADYFCQQYNNYPLTFGAGTKLELK
notes: Lineage HV1-67/KV6-15
Take B4: the binding result in [1] is listed as “no binding”.

B5: C668 (antibody, V domains shown)
VH: EVKLVESGGGLVKPGGSLKLSCLVSGITFSNDAMSWVRQTPEKRLEWVASISSGGRNYYPDSVKGRFTISRDNARNILYLQMSSLRSEDTAMYFCAREGISVWAMDYWGQGTSVTVSS
VL: DIVMTQAAFSNPVTLGTSASISCRSSKSLLHSNGITYLYWYLQRPGQSPQLLIYRMSNLASGVPDRFSSSGSGTDFTLRISRVEAEDVGVYYCAQNLELPPTFGGGTKLEIK
notes: also called lineage HV5-6-5/KV2-109 antibody C668
On to B5, for which the “EC50 (read off the curve)” value in [6] was ~0.2 mg/L.

B6: C862 (antibody, V domains shown)
VH: EVKLVESGGGLVKPGGSLKLSCAASGITFSSSAMSWVRQTPEKRLEWVASISSGGHTYYLDSMKGRFTISRDNARNILYLQMGSLRSEDTAVYYCAREGIYVWAMDYWGQGTSVTVSS
VL: DIVMTQAAFSNPVTLGTSASISCRSSKSLLQSNGITYLYWYLQKPGQSPQLLIYRMSNLASGVPDRFSGSGSGTDFTLRISRVEAEDVGIYYCAQNLELPPTFGGGTKLEIK
As to B6, the binding result is recorded as “no binding” in [10]; “binds” in assay [11]; “binds” in assay [12]; “binds” in [13]; “binds” in [14]; “binds” in assay [15]. In [7], the binding result is “binds”.

B7: C1766 (antibody, V domains shown)
VH: EVKLVESGGGLVKPGGSLKLSCVASGFTFSNDAMSWVRQTPEKRLEWVASISSGGRKYYPDNVKGRFTISRDNARNILYLQMSSLRSEDTAMYYCAREGIYVWAMDYWGQGTSVTVSS
VL: DIVMTQAAFSNPVTLGTSASISCRSSESLLHSNGITYLYWYLQKPGQSPQLLIYRMSNLASGVPDRFSSSGSGTDFTLRISRVEAEDVGVYYCAQNLELPPTFGGGTKLEIK
Regarding B7, the binding result in [10] is given as “no binding”; in [16] it was “binds”; in assay [11], “binds”; in assay [17], “binds”; in assay [12] it was “binds”; in assay [13], “binds”. In [7], the binding result is “binds”.

As a reminder, the EC50 (read off the curve) is the midpoint of the concentration-response curve. Lower therefore signals an effect from little substance.
